Reference: PMC10838372 (Journal of inherited metabolic disease, 2023)

B1: dihydroorotase (DHO) domain of human CAD, wild type (domain or fragment, UniProt P27708 1456-1846, looked up)
chain: MTSQKLVRLPGLIDVHVHLREPGGTHKEDFASGTAAALAGGITMVCAMPNTRPPIIDAPALALAQKLAEAGARCDFALFLGASSENAGTLGTVAGSAAGLKLYLNETFSELRLDSVVQWMEHFETWPSHLPIVAHAEQQTVAAVLMVAQLTQRSVHICHVARKEEILLIKAAKARGLPVTCEVAPHHLFLSHDDLERLGPGKGEVRPELGSRQDVEALWENMAVIDCFASDHAPHTLEEKCGSRPPPGFPGLETMLPLLLTAVSEGRLSLDDLLQRLHHNPRRIFHLPPQEDTYVEVDLEHEWTIPSHMPFSKAHWTPFEGQKVKGTVRRVVLRGEVAYIDGQVLVPPGYGQDVRKWPQGAVPQLPPSAPATSEMTTTPERPRRGIPGLPD
modifications: carboxylated lysine (KCX) at K1556
B2: DHO domain of human CAD, variant R1810Q (domain or fragment, UniProt P27708 1456-1846, looked up)
chain: MTSQKLVRLPGLIDVHVHLREPGGTHKEDFASGTAAALAGGITMVCAMPNTRPPIIDAPALALAQKLAEAGARCDFALFLGASSENAGTLGTVAGSAAGLKLYLNETFSELRLDSVVQWMEHFETWPSHLPIVAHAEQQTVAAVLMVAQLTQRSVHICHVARKEEILLIKAAKARGLPVTCEVAPHHLFLSHDDLERLGPGKGEVRPELGSRQDVEALWENMAVIDCFASDHAPHTLEEKCGSRPPPGFPGLETMLPLLLTAVSEGRLSLDDLLQRLHHNPRRIFHLPPQEDTYVEVDLEHEWTIPSHMPFSKAHWTPFEGQKVKGTVRRVVLRGEVAYIDGQVLVPPGYGQDVQKWPQGAVPQLPPSAPATSEMTTTPERPRRGIPGLPD
B3: DHO domain of human CAD, variant R1789Q (domain or fragment, UniProt P27708 1456-1846, looked up)
chain: MTSQKLVRLPGLIDVHVHLREPGGTHKEDFASGTAAALAGGITMVCAMPNTRPPIIDAPALALAQKLAEAGARCDFALFLGASSENAGTLGTVAGSAAGLKLYLNETFSELRLDSVVQWMEHFETWPSHLPIVAHAEQQTVAAVLMVAQLTQRSVHICHVARKEEILLIKAAKARGLPVTCEVAPHHLFLSHDDLERLGPGKGEVRPELGSRQDVEALWENMAVIDCFASDHAPHTLEEKCGSRPPPGFPGLETMLPLLLTAVSEGRLSLDDLLQRLHHNPRRIFHLPPQEDTYVEVDLEHEWTIPSHMPFSKAHWTPFEGQKVKGTVRRVVLQGEVAYIDGQVLVPPGYGQDVRKWPQGAVPQLPPSAPATSEMTTTPERPRRGIPGLPD
B4: DHO domain of human CAD, variant R1617Q (domain or fragment, UniProt P27708 1456-1846, looked up)
chain: MTSQKLVRLPGLIDVHVHLREPGGTHKEDFASGTAAALAGGITMVCAMPNTRPPIIDAPALALAQKLAEAGARCDFALFLGASSENAGTLGTVAGSAAGLKLYLNETFSELRLDSVVQWMEHFETWPSHLPIVAHAEQQTVAAVLMVAQLTQRSVHICHVAQKEEILLIKAAKARGLPVTCEVAPHHLFLSHDDLERLGPGKGEVRPELGSRQDVEALWENMAVIDCFASDHAPHTLEEKCGSRPPPGFPGLETMLPLLLTAVSEGRLSLDDLLQRLHHNPRRIFHLPPQEDTYVEVDLEHEWTIPSHMPFSKAHWTPFEGQKVKGTVRRVVLRGEVAYIDGQVLVPPGYGQDVRKWPQGAVPQLPPSAPATSEMTTTPERPRRGIPGLPD
B5: DHO domain of human CAD, variant R1785C (domain or fragment, UniProt P27708 1456-1846, looked up)
chain: MTSQKLVRLPGLIDVHVHLREPGGTHKEDFASGTAAALAGGITMVCAMPNTRPPIIDAPALALAQKLAEAGARCDFALFLGASSENAGTLGTVAGSAAGLKLYLNETFSELRLDSVVQWMEHFETWPSHLPIVAHAEQQTVAAVLMVAQLTQRSVHICHVARKEEILLIKAAKARGLPVTCEVAPHHLFLSHDDLERLGPGKGEVRPELGSRQDVEALWENMAVIDCFASDHAPHTLEEKCGSRPPPGFPGLETMLPLLLTAVSEGRLSLDDLLQRLHHNPRRIFHLPPQEDTYVEVDLEHEWTIPSHMPFSKAHWTPFEGQKVKGTVRCVVLRGEVAYIDGQVLVPPGYGQDVRKWPQGAVPQLPPSAPATSEMTTTPERPRRGIPGLPD
B6: DHO domain of human CAD, variant R1722W (domain or fragment, UniProt P27708 1456-1846, looked up)
chain: MTSQKLVRLPGLIDVHVHLREPGGTHKEDFASGTAAALAGGITMVCAMPNTRPPIIDAPALALAQKLAEAGARCDFALFLGASSENAGTLGTVAGSAAGLKLYLNETFSELRLDSVVQWMEHFETWPSHLPIVAHAEQQTVAAVLMVAQLTQRSVHICHVARKEEILLIKAAKARGLPVTCEVAPHHLFLSHDDLERLGPGKGEVRPELGSRQDVEALWENMAVIDCFASDHAPHTLEEKCGSRPPPGFPGLETMLPLLLTAVSEGWLSLDDLLQRLHHNPRRIFHLPPQEDTYVEVDLEHEWTIPSHMPFSKAHWTPFEGQKVKGTVRRVVLRGEVAYIDGQVLVPPGYGQDVRKWPQGAVPQLPPSAPATSEMTTTPERPRRGIPGLPD
B7: DHO domain of human CAD, variant K1482M (domain or fragment, UniProt P27708 1456-1846, looked up)
chain: MTSQKLVRLPGLIDVHVHLREPGGTHMEDFASGTAAALAGGITMVCAMPNTRPPIIDAPALALAQKLAEAGARCDFALFLGASSENAGTLGTVAGSAAGLKLYLNETFSELRLDSVVQWMEHFETWPSHLPIVAHAEQQTVAAVLMVAQLTQRSVHICHVARKEEILLIKAAKARGLPVTCEVAPHHLFLSHDDLERLGPGKGEVRPELGSRQDVEALWENMAVIDCFASDHAPHTLEEKCGSRPPPGFPGLETMLPLLLTAVSEGRLSLDDLLQRLHHNPRRIFHLPPQEDTYVEVDLEHEWTIPSHMPFSKAHWTPFEGQKVKGTVRRVVLRGEVAYIDGQVLVPPGYGQDVRKWPQGAVPQLPPSAPATSEMTTTPERPRRGIPGLPD
B8: DHO domain of human CAD, variant R1475Q (domain or fragment, UniProt P27708 1456-1846, looked up)
chain: MTSQKLVRLPGLIDVHVHLQEPGGTHKEDFASGTAAALAGGITMVCAMPNTRPPIIDAPALALAQKLAEAGARCDFALFLGASSENAGTLGTVAGSAAGLKLYLNETFSELRLDSVVQWMEHFETWPSHLPIVAHAEQQTVAAVLMVAQLTQRSVHICHVARKEEILLIKAAKARGLPVTCEVAPHHLFLSHDDLERLGPGKGEVRPELGSRQDVEALWENMAVIDCFASDHAPHTLEEKCGSRPPPGFPGLETMLPLLLTAVSEGRLSLDDLLQRLHHNPRRIFHLPPQEDTYVEVDLEHEWTIPSHMPFSKAHWTPFEGQKVKGTVRRVVLRGEVAYIDGQVLVPPGYGQDVRKWPQGAVPQLPPSAPATSEMTTTPERPRRGIPGLPD
B9: DHO domain of human CAD, variant K1556T (domain or fragment, UniProt P27708 1456-1846, looked up)
chain: MTSQKLVRLPGLIDVHVHLREPGGTHKEDFASGTAAALAGGITMVCAMPNTRPPIIDAPALALAQKLAEAGARCDFALFLGASSENAGTLGTVAGSAAGLTLYLNETFSELRLDSVVQWMEHFETWPSHLPIVAHAEQQTVAAVLMVAQLTQRSVHICHVARKEEILLIKAAKARGLPVTCEVAPHHLFLSHDDLERLGPGKGEVRPELGSRQDVEALWENMAVIDCFASDHAPHTLEEKCGSRPPPGFPGLETMLPLLLTAVSEGRLSLDDLLQRLHHNPRRIFHLPPQEDTYVEVDLEHEWTIPSHMPFSKAHWTPFEGQKVKGTVRRVVLRGEVAYIDGQVLVPPGYGQDVRKWPQGAVPQLPPSAPATSEMTTTPERPRRGIPGLPD

Target: the molecule itself
Experiment: SEC

Stoichiometry N, 2:
B1
B2
B3
B4
B5
B6
B7
B8
B9
